In the supplement of paper PMC10567573:

B1: FBXO39 (parent)
chain: RVFKARIYTNRYETNEEDKTLQEI
B2: VDR (parent)
chain: VTLELSQLSMLPHLADLVSYSIQK

Variants of: B1
Experiment: protein stability index of a GFP-peptide fusion (GPS, HEK-293T) (PSI 1-6); higher = more stable
Conditions: c terminus: a fixed tail appended
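Also: lentivirally expressed fusions sorted by FACS into six bins by GFP to DsRed ratio, PSI derived from sequencing read proportions per bin multiplied by bin number.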

Protein stability index of substitutions, site by site:
R1: Y 2.14; W 2.08; P 4.26; S 2.72; Q 3.74; D 3.95; M 3.34; F 1.66; V 1.66; K 2.6; L 2.74; H 3.35; I 3.15; T 2.72; C 1.7; A 2.84; G 3.42
V2: E 4.36; C 2.87; D 4.76

Variants of: B2
Experiment: as above
Conditions: c terminus: a fixed tail appended

Protein stability index of substitutions, site by site:
S9: E 3.48; D 2.83; K 3.79; Y 2.63; M 3.43; C 2.37; L 2.79; V 2.74; W 3.43; H 3.83; F 2.67; I 3.23; A 2.74; R 3.06; P 1.97; Q 2.24; N 3.47; G 3.56
L14: Y 3.47; F 2.69; V 3.03; G 1.71; T 2.12; K 2.31; N 1.61; Q 2.22; R 1.86; C 2.09; E 2.88; H 2.6; M 3.71; I 3.33; S 1.66; P 1.85; W 2.95; D 2.49; A 2.18
L11: E 1.52; P 3.08; G 1.55; A 1.62; I 3.11; M 2.38; F 2.5; V 2.06; K 3.55; Q 2.42; R 1.94; T 2.73; D 1.23; W 2.6; S 2.19; C 2.65; N 1.71; Y 3.22; H 3.18
S21: D 3.11; R 2.13; V 3.87; M 1.43; N 3.47; W 3.16; K 2.89; G 2.48; I 1.89; Y 2.45; P 1.05; Q 1.43; E 2.84; F 3.64; H 2.5
S19: E 2.05; D 2.27; G 4.13; H 2.79; P 2.63; A 2.23; W 3.07; N 3.84; R 3.25; V 4.3; T 3.23; C 2.33; I 2.76; L 4.2; F 3.49; Y 2.42; M 3.08; K 1.68
L8: H 2.92; V 3.88; P 2.33; R 2.25; Y 2.47; Q 1.54; M 3.27; A 2.74; S 2.16; E 1.65; C 2.43; W 1.82; N 2.35; G 1.62; D 2.91; T 2.85; K 3.33
Y20: I 3.08; D 1.35; L 3.69; P 2.3; A 1.94; Q 3.29; W 2.91; T 2.31; N 1.81; M 2.91; C 2.66; G 2.73; F 2.41; E 2.97; K 2.33; R 3.61; H 3.24; S 2.92
H13: E 3.51; S 2.57; A 2.64; F 2.48; D 2.87; N 2.13; V 1.98; K 2.92; R 2.16; T 2.23; M 4.11; Q 1.8; Y 2.58; P 2.69; I 3.46; W 1.99; G 2.52
M10: R 3.32; F 1.99; G 2.09; D 1.71; N 2.14; H 2.76; E 1.87; C 3.52; K 1.69; T 2.87; Q 2.65; P 2.64; A 2.73; S 1.96; Y 2.33; I 2.35; L 2.62; W 3.71
Q23: L 3.08; V 2.59; P 1.68; I 2.56; F 4.15; G 2.84; H 5.2; N 2.07; Y 1.97; K 3.23; W 1.56; E 3.09; C 2.33; S 2.05; T 2.74
K24: L 1.86; G 2.79; A 2.14; R 3.01; E 3.5; Q 3.06; H 5.43; Y 3.25; C 2.39; D 3.06; T 3.5; M 3.28; I 4.63; N 3.71; P 2.95; W 3.71; V 5.45; S 2.66
Q7: D 2.45; N 2.84; W 2.56; M 3.99; R 2.33; T 3.45; Y 2.81; L 3.66; E 3.06; I 2.06; K 2.59; V 2.68; G 1.33; P 2.45; S 2.99; H 3.22
V18: E 1.73; K 2.69; H 2.04; W 3.29; L 3.33; M 2.99; S 2.94; D 2.24; T 1.49; G 1.78; N 1.8; A 3.69; R 2.57; C 4.49; Q 2.76; P 1.88; I 2.79; Y 3.48; F 3.13
L17: T 2.47; N 1.77; M 2.75; C 3.09; A 2.04; D 1.7; P 2.77; W 3.14; H 1.98; S 1.6; V 1.66; R 1.62; G 1.33; E 1.87; Q 2.42; K 1.68
I22: Q 2.74; E 1.92; N 2.32; D 2.23; T 1.87; F 2.12; C 4.35; G 2.47; A 1.56; P 1.55; Y 3.63; S 1.79; K 1.72; W 1.98; H 2.34; R 2.12; M 3.49; V 4.61
A15: E 1.85; I 3.26; K 2.64; V 3.02; D 3.12; N 2.99; T 2.83; R 2.64; P 2.1; F 2.81; W 2.67; Y 4.33; H 4.28; G 2.59; L 3.63; Q 2.83; M 2.78; S 2.73
D16: Q 3.98; L 3.77; W 2.26; R 3.75; V 3.99; P 3.09; T 2.91; C 3.86; K 4.49; F 3.5; A 3.1; S 2.82; E 4.21; N 3.07; M 3.71; G 1.67; Y 2.31; H 3
P12: W 4.36; T 3.29; Q 3.63; M 2.51; L 3.04; N 2.22; R 3.79; F 1.44; S 2.38; V 2.61; D 3.28; I 3.14; G 2.02; A 2.4; C 3.89; K 2.72; Y 3.69
